Experimental data taken from article PMC7528653.
Where two headings read alike, the source gives them in different places.

How the values were obtained:
Test in all cases: UV crosslinking
[1] = biological target: T1, DCCcore (MSL1-MSL2-MSL3-MOF) (Drosophila melanogaster, UniProt P50535;P50534;P50536;O02193 1-1039;1-773;1-512;1-827)
MSL2 = biological target: T2, MSL2 (Drosophila melanogaster, UniProt P50534 1-773)
T2 sequence: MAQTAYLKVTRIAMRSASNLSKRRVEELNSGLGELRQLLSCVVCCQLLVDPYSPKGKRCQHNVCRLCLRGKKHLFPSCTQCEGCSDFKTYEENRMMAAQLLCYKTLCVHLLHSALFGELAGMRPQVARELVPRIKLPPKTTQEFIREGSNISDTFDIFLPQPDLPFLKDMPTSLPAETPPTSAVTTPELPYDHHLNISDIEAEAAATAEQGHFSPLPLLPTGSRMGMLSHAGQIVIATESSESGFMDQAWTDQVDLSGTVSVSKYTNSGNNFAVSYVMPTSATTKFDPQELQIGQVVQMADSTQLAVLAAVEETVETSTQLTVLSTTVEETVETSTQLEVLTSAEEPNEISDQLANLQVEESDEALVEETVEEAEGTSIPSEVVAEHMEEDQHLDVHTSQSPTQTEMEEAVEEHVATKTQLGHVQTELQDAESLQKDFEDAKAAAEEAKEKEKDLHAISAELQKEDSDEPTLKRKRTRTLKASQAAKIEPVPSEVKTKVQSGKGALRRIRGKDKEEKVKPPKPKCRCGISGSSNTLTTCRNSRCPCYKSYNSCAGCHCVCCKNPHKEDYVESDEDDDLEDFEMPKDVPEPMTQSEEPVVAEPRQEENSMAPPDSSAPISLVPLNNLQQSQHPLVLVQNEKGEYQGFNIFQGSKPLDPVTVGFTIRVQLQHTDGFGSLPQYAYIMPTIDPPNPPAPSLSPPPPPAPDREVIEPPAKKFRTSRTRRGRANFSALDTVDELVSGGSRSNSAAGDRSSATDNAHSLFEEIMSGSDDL

MSL1 = biological target: T3, MSL1 (Drosophila melanogaster, UniProt P50535 1-1039)
T3 sequence: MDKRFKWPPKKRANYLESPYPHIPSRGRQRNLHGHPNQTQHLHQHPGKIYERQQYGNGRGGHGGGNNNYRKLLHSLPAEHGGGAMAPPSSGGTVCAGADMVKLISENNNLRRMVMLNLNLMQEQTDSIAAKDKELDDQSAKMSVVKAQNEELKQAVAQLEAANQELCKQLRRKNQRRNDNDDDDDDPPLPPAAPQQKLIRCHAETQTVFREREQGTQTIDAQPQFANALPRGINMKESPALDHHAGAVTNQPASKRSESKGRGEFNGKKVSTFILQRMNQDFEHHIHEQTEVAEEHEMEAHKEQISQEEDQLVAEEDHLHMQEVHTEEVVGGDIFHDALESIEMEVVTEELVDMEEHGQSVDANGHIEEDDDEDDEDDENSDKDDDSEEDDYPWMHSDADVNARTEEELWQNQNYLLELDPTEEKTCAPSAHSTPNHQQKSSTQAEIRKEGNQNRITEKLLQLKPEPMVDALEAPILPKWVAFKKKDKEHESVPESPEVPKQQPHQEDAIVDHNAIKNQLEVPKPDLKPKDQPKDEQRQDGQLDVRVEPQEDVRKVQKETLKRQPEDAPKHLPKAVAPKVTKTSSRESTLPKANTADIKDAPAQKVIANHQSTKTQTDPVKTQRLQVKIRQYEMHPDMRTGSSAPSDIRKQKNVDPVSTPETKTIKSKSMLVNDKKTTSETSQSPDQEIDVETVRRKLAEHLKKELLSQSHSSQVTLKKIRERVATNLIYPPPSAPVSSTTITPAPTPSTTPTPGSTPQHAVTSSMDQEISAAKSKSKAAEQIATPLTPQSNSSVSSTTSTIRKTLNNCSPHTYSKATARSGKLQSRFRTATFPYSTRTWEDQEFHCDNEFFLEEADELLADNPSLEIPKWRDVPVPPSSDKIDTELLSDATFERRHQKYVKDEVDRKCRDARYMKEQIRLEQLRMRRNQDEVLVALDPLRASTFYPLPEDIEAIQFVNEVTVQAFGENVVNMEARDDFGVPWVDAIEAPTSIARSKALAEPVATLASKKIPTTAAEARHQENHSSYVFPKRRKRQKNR

[2] = biological target: T1, DCCcore (MSL1-MSL2-MSL3-MOF); remark: listed apart in the source

T1 sequence (P50536 whole entry, chain 3 of 2): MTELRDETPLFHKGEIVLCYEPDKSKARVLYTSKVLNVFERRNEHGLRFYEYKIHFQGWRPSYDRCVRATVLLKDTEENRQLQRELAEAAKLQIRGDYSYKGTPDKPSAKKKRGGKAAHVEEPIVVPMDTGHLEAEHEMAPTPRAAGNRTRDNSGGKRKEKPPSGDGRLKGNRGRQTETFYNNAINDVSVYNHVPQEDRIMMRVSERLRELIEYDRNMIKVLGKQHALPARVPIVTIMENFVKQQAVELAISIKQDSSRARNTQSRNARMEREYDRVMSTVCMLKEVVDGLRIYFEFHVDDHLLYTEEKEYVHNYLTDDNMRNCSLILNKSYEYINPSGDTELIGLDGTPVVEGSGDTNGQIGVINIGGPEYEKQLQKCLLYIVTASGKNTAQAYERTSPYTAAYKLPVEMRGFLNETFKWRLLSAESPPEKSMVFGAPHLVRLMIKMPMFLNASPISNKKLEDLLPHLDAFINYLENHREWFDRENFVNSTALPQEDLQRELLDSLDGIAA
T1 sequence (O02193 whole entry, chain 4 of 2): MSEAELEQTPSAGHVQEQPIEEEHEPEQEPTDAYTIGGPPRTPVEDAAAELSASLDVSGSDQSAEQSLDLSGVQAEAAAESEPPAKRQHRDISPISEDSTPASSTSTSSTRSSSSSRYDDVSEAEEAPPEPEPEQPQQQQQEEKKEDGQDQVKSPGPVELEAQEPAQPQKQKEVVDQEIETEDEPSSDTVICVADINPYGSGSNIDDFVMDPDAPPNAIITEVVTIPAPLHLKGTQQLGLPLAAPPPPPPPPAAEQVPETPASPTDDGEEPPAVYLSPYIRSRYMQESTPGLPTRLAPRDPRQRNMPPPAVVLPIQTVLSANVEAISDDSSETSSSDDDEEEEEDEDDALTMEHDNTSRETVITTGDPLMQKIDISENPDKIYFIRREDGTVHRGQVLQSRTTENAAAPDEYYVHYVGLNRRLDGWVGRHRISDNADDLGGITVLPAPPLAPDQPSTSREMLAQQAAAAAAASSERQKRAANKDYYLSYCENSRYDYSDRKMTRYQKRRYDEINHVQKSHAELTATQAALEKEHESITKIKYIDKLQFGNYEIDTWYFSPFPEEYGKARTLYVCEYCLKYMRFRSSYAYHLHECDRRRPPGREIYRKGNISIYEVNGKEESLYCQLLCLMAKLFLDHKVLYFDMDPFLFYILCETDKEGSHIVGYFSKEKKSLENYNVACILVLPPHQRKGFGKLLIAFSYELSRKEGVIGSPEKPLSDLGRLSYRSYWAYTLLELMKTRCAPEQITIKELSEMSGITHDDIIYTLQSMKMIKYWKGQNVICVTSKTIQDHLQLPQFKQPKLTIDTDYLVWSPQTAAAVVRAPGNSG

B1: roX2 SL7-Loop (structured_RNA)
RNA: AUUAAGCAAAUAUAUAUGCAUAUAU
binding result [1]: no binding

B2: roX2 SL7-3' (structured_RNA)
RNA: UGGGUAACGUUUUACGCGCCUU
binding result (MSL2): binds | binding result (MSL1): binds | binding result [2]: binds
